Measurements reported in publication PMC10545826.

How the values were obtained:
[1] = biological target: human FcγRIIIa (CD16a) V158 (human); assay: SPR; Biacore 8K; His-tagged FcγRIIIa captured (aimed 60 RU) by anti His-tag antibody on a CM5 chip; antibody samples as analytes (trastuzumab samples 360 to 22.5 nM); PBS with 0.005% Tween-20; 1:1 Langmuir global fit; temperature of the printed KD not stated (measured at 21-29 °C)
[2] = biological target: human FcγRIIIa (CD16a) V158 (human); assay: SPR; Biacore 8K; His-tagged FcγRIIIa captured (aimed 60 RU) by anti His-tag antibody immobilised on a CM5 chip; antibody samples as analytes (360 to 22.5 nM for the trastuzumab samples); PBS with 0.005% Tween-20; global fit, 1:1 Langmuir model; measured at 21-29 °C, the temperature of Table S1 not given
[3] = biological target: human FcγRIIIa (CD16a) V158 (human); assay: SPR; van't Hoff analysis of the temperature dependence of KD (21, 23, 25, 27, 29 °C), parameters at 25 °C; FcγRIIIa captured by anti His-tag antibody, antibody as analyte; PBS with 0.005% Tween-20
[4] = biological target: human FcγRIIIa (CD16a) V158 (human); assay: SPR
Target sequence in this assay (P08637 17-208 F176V): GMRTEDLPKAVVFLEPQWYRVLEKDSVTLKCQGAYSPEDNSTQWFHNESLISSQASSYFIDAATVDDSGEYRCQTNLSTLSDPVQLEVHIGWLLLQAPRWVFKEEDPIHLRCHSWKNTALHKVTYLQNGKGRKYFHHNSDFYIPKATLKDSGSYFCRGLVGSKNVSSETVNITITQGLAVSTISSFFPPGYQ

Substance	koff [2] [s⁻¹]	kon [2] [M⁻¹ s⁻¹]	other results
Rituximab (Rituxan), an anti CD20 human antibody	0.0331	540000	Kd [1]: 61.4 nM
Trastuzumab (anti-HER2 humanized IgG1) (antibody)	0.0281	550000	dH [3]: -35.9 kcal/mol; Kd [1]: 51 nM
afucosyl rituximab	–	–	Kd [4]: 10.9 nM
afucosyl rituximab (antibody)	0.0108	990000	fold increase of affinity relative to rituximab [1]: 22 fold
divalent DOTA-conjugated trastuzumab	–	–	Kd [4]: 3.6 nM
divalent DOTA-conjugated trastuzumab (antibody)	0.0089	2.46e+06	–
monovalent DOTA-conjugated trastuzumab (antibody)	0.0116	950000	Kd [2]: 12.2 nM
